Earlier results on 1 substance are cited in publication PMC3045798.

In the data set the target is Cys25 (UniProt position 158, GSCGSCWAFSA).

On to “Papain (Carica papaya (not stated in the article))”, for which the pKa entry was “around 2.5 to 3.5”.
